# Data as given in US20170369571A1 (AbbVie / Abbott, published 2017).
# T1: recombinant rat SEZ6 ECD with 9-Histidine tag (rat, UniProt Q7TSK2 20-922 (mouse entry))
# T1 construct: also called rSEZ6-ECD-His; rat recombinant SEZ6-His
# T1 chain: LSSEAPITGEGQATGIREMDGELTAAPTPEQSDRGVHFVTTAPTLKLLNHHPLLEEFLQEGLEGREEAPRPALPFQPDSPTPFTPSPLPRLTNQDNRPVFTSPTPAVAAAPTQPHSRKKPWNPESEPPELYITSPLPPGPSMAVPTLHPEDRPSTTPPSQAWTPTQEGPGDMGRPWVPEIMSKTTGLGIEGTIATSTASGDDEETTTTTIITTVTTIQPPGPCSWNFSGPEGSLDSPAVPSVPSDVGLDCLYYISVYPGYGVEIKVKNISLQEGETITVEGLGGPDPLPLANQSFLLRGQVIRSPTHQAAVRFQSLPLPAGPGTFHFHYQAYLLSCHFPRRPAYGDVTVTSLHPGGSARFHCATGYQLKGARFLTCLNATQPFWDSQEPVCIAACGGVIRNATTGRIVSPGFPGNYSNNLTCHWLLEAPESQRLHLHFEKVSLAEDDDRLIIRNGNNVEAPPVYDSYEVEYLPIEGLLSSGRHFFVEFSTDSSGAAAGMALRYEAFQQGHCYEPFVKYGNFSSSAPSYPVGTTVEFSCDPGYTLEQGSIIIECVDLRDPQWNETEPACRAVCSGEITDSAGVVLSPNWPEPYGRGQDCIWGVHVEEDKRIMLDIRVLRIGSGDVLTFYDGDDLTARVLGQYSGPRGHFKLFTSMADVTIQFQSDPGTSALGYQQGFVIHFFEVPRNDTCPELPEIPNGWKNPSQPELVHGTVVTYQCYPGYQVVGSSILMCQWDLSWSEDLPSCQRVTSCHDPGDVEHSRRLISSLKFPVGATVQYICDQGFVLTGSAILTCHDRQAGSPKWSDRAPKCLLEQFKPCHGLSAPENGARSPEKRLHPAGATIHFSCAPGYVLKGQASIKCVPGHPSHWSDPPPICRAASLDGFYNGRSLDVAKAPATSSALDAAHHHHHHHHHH
# T2: cynomolgus SEZ6 extracellular domain displayed on yeast (cynomolgus, UniProt Q53EL9 23-925 (human entry))
# T2 construct: also called cSEZ6; cynomolgus SEZ6 ECD
# T2 chain: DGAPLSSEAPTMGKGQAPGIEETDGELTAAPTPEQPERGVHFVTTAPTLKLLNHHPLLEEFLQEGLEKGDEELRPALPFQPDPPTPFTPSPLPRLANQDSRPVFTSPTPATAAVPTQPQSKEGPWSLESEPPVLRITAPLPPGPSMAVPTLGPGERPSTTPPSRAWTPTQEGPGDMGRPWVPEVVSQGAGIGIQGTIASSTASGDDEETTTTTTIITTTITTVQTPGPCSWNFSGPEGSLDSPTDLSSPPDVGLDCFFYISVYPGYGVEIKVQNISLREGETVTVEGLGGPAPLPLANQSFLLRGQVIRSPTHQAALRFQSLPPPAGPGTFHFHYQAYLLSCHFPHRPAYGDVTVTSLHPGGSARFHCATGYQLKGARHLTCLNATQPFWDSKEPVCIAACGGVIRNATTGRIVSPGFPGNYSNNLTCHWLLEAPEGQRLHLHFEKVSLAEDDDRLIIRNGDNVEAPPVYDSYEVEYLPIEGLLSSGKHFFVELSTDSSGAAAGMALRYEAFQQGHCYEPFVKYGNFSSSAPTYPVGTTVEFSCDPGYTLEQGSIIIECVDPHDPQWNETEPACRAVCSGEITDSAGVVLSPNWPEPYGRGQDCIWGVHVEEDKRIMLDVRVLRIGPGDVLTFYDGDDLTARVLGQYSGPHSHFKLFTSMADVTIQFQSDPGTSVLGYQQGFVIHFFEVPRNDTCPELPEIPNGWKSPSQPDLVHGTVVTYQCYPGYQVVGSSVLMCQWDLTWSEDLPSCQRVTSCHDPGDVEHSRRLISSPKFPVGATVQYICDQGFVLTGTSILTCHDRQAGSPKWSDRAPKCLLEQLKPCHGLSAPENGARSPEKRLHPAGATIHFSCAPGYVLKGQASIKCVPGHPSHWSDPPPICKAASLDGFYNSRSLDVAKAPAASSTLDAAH
# Legend:
# [1] = target: human SEZ6 on patient-derived NTX tumor cells (human) (UniProt Q53EL9); assay: flow cytometry, LU86 NTX tumor cells, dot plot CD324 against MOPC isotype control
# [2] = target: human SEZ6 on patient-derived NTX tumor cells (human) (UniProt Q53EL9); assay: flow cytometry, LU64 NTX tumor cells, dot plot CD324 against MOPC isotype control, gate at 10^3
# [3] = target: human SEZ6 on patient-derived NTX tumor cells (human) (UniProt Q53EL9); assay: flow cytometry, LU117 NTX tumor cells, dot plot CD324 against MOPC isotype control, gate at 10^3
# [4] = target: human SEZ6 on patient-derived NTX tumor cells (human) (UniProt Q53EL9); assay: flow cytometry, LU64 NTX tumor cells, dot plot CD324 against SC17.42, gate at 10^3
# [5] = target: human SEZ6 on patient-derived NTX tumor cells (human) (UniProt Q53EL9); assay: flow cytometry on LU100 NTX tumor cells; FMO (MFI) of the same line 289
# [6] = target: human SEZ6 overexpressed on HEK-293T cells (human, UniProt Q53EL9 20-994); assay: cell-based or functional assay
# [7] = target: T1, recombinant rat SEZ6 ECD with …; assay: assay not given
# [8] = target: T2, cynomolgus SEZ6 extracellular domain …; assay: assay not given
molecule,measurement,setting,value
MOPC (antibody),% of cells CD324+ and MOPC+ (upper right quadrant),[1],0.483%
same,% of cells CD324- and MOPC+ (lower right quadrant),[1],0.014%
same,% of cells CD324+ and MOPC+ (upper right quadrant),[2],0.597%
same,% of cells CD324+ and MOPC+ (upper right quadrant),[3],0.347%
same,% of cells CD324- and MOPC+ (lower right quadrant),[3],0.05%
"SC17.42 (antibody, from a related filing, V domains shown) VH: DVKLVESGGGLVRPGGSLKLSCAASGFTFSRYTMSWVRQTPEKRLEWAATINSGGSNTYYPDSVKGRFTISRDNAKNTLFLQMSSLKSEDTAMYYCTNGNHWGQGTTLTVSS VL: ENVLTQSPAIMSASPGEKVTMTCSASSSVNYMYWYQQKSSTSPKLWIYDTSKLTSGVPGRFSGSGSGNSYSLTISNMEAEDVATYYCFQGSGYPLTFGSGTKLEIK",% of cells CD324+ and SC17.42+ (upper right quadrant),[4],27.7%
same,% of cells CD324- and SC17.42+ (lower right quadrant),[4],0.637%
same,Tumor (MFI),[5],1400
"hSC17.17-ADC1 (antibody, V domains shown, PBD dimer (ADC1) through a maleimido linker on reduced Cys residues) VH: QVQLVQSGAEVKKPGASVKVSCKASGYTFTDYNMHWVRQAPGQGLEWMGEINPNIGGTGYNQKFKGRVTMTRDTSISTAYMELSRLRSDDTAVYYCARTYSYYSYEFAYWGQGTLVTVSS VL: EIVLTQSPATLSLSPGERATLSCSASSSVSYMHWYQQKPGQAPRLLIYDTSKLPSGIPARFSGSGSGTDFTLTISSLEPEDFAVYYCQQWSSTPPTFGQGTKLEIK","in vitro cytotoxicity, IC50",[6],11 nM
"SC17.46 (antibody, V domains shown, murine mAb) VH: QVQLQQPGAELVKPGASMKLSCKASGYTFTSYWINWVKQRPGQGLEWIGNIFPDTTTTNYNEKFKSKATLTVDTSSSTAYMQLSSLTSDDSAVYYCAREYYDGTYDAMDYWGQGTSVTVS VL: SFVMTQTPKFLLVSAGDRVTITCKASQSVNNDVAWYQQKPGQSPKLLIYYASNRYTGVPDRFTGSGYGTDFTFTISTVQAEDLAVYFCQQDYSSPRTFGGGTKLEIK",binding result,[7],no binding
same,binding result,[8],no binding
